Test results from US20210316003A1 (Immunomedics, Inc., priority 2020, published 2021).

Experiments:
[1] = test system: patients with diverse metastatic cancers; test: Phase I trial and phase II extension in diverse epithelial cancers: related adverse events (CTCAE v 4.0); assay type: in vivo, human
[2] = test system: patients with metastatic TNBC; conditions: second line or later (Bardia et al., 2019); cited from earlier work
patients with mSCLC = test: Phase I/II trial (NCT01631552), mSCLC: safety and tolerability; conditions: N = 53
Description: Doses of 8 or 10 mg/kg were given on days 1 and 8 of a 21-day cycle, with contingencies to delay (maximum of 2 weeks). Toxicities were managed by supportive hematopoietic growth-factor therapy for blood cell reduction, dose delays and/or modification as specified in the protocol (e.g., 25% of prior dose), or by standard medical practice. Treatment was continued until disease progression, initiation of alternative anticancer therapy, unacceptable toxicity, or withdrawal of consent.
Safety evaluations were conducted during scheduled visits or more frequently if warranted.
Statistical Analyses—The data included in the analyses were derived from patients enrolled from November 2013 to June 2016, with follow-up through Jan. […] The frequency and severity of adverse events (AEs) were defined by MedDRA Preferred Term and System Organ Class (SOC) version 10, with severity assessed by NCI-CTCAE v4.03.

[3] = In vivo animal studies: release of SN-38 from the conjugate
Excerpt: Plasma CEA and CA19-9 correlated with responses.

[4] = test system: patients with non-small cell lung cancer (NSCLC); conditions: cited from earlier work
[5] = test system: patients with diverse metastatic cancers; test: Phase I trial and phase II extension in diverse epithelial cancers: best response and time to progression; assay type: in vivo, human
Excerpt: The present Example reports the initial Phase I trial of 25 patients (pts) who had failed multiple prior therapies (some including topoisomcrasc-I/II inhibiting drugs), and the ongoing Phase II extension now reporting on 69 pts, including in colorectal (CRC), small-cell and non-small cell lung (SCLC, NSCLC, respectively), triple-negative breast (TNBC), pancreatic (PDC), esophageal, gastric, prostate, ovarian, renal, urinary bladder, head/neck and hepatocellular cancers. Patients were refractory/relapsed after standard treatment regimens for metastatic cancer. […]
A total of 69 patients (including 25 patients in Phase I) with diverse metastatic cancers having a median of 3 prior therapies were reported. Eight patients had clinical progression and withdrew before CT assessment. Thirteen CT-assessable pancreatic cancer patients were separately reported. The median TTP (time to progression) in PDC patients was 11.9 wks (range 2 to 21.4 wks) compared to median 8 wks TTP for the preceding last therapy.
A total of 48 patients with diverse cancers had at least 1 CT-assessment from which Best Response and Time to Progression (TTP) were determined. […] For SCLC (small cell lung cancer), of 4 assessable patients there were 2 PR, 0 SD and 2 PD for a total response of 2/4 (50%). For CRC (colorectal cancer), of 18 assessable patients there were 1 PR, 11 SD and 6 PD for a total response of 12/18 (67%). For esophageal cancer, of 4 assessable patients there were 1 PR, 2 SD and 1 PD for a total response of 3/4 (75%). For NSCLC (non-small cell lung cancer), of 5 assessable patients there were 1 PR, 3 SD and 1 PD for a total response of 4/5 (80%). Over all patients treated, of 48 assessable patients there were 7 PR, 27 SD and 14 PD for a total response of 34/48 (71%).

[6] = Serum pharmacokinetics (ELISA for IgG and intact conjugate, HPLC for SN-38); assay type: in vivo, human; conditions: patients
Description: Two ELISA methods were used to measure the clearance of the IgG (capture with anti-hRS7 idiotype antibody) and the intact conjugate (capture with anti-SN-38 IgG/probe with anti-hRS7 idiotype antibody). SN-38 was measured by HPLC.

[7] = test system: patients with metastatic urothelial cancer (mUC); conditions: 10 mg/kg, cited from earlier work
[8] = 48 assessable pts (excluding PDC)
[9] = 48 assessable pts (excluding PDC), listed as hRS7-SN-38
[10] = CRC, person, after 10 months of treatment
[11] = esophageal cancer, 4 assessable patients

sacituzumab govitecan
Diarrhea ≥G3 ([1]; 49 pts reporting related AE): 9%
Fatigue ≥G3 ([1]; 49 pts reporting related AE): 9%
Nausea ≥G3 ([1]; 49 pts reporting related AE): 0%
Neutropenia ≥G3 ([1]; 49 pts reporting related AE): 28%
Vomiting ≥G3 ([1]; 49 pts reporting related AE): 2%
Abdominal pain, Grade 3, patients ([1]; related AE, N = 47): 0
Abdominal pain, Grade 4, patients ([1]; related AE, N = 47): 0
Abdominal pain, TOTAL ([1]; related AE, N = 47): 11%
Alopecia, TOTAL ([1]; related AE, N = 47): 40%
Anemia, Grade 3, % ([1]; related AE, N = 47): (4%)
Anemia, Grade 3, patients ([1]; related AE, N = 47): 2
Anemia, Grade 4, patients ([1]; related AE, N = 47): 0
Anemia, TOTAL ([1]; related AE, N = 47): 13%
Deep vein thrombosis, Grade 3, % ([1]; related AE, N = 47): (2%)
Deep vein thrombosis, Grade 3, patients ([1]; related AE, N = 47): 1
Deep vein thrombosis, Grade 4, patients ([1]; related AE, N = 47): 0
Deep vein thrombosis, TOTAL ([1]; related AE, N = 47): 2%
Diarrhea, Grade 3, % ([1]; related AE, N = 47): (9%)
Diarrhea, Grade 3, patients ([1]; related AE, N = 47): 4
Diarrhea, Grade 4, patients ([1]; related AE, N = 47): 0
Diarrhea, TOTAL ([1]; related AE, N = 47): 47%
Dysgeusia, Grade 3, patients ([1]; related AE, N = 47): 0
Dysgeusia, Grade 4, patients ([1]; related AE, N = 47): 0
Dysgeusia, TOTAL ([1]; related AE, N = 47): 15%
Fatigue, Grade 3, % ([1]; related AE, N = 47): (9%)
Fatigue, Grade 3, patients ([1]; related AE, N = 47): 4
Fatigue, Grade 4, patients ([1]; related AE, N = 47): 0
Fatigue, TOTAL ([1]; related AE, N = 47): 55%
Febrile Neutropenia, Grade 3, % ([1]; related AE, N = 47): (2%)
Febrile Neutropenia, Grade 3, patients ([1]; related AE, N = 47): 1
Febrile Neutropenia, Grade 4, % ([1]; related AE, N = 47): 4%
Febrile Neutropenia, Grade 4, patients ([1]; related AE, N = 47): 2
Febrile Neutropenia, TOTAL ([1]; related AE, N = 47): 6%
Hypokalemia, Grade 3, % ([1]; related AE, N = 47): (2%)
Hypokalemia, Grade 3, patients ([1]; related AE, N = 47): 1
Hypokalemia, Grade 4, patients ([1]; related AE, N = 47): 0
Hypokalemia, TOTAL ([1]; related AE, N = 47): 11%
Nausea, Grade 3, patients ([1]; related AE, N = 47): 0
Nausea, Grade 4, patients ([1]; related AE, N = 47): 0
Nausea, TOTAL ([1]; related AE, N = 47): 53%
Neutropenia, Grade 3, % ([1]; related AE, N = 47): (24%)
Neutropenia, Grade 3, patients ([1]; related AE, N = 47): 11
Neutropenia, Grade 4, % ([1]; related AE, N = 47): 4%
Neutropenia, Grade 4, patients ([1]; related AE, N = 47): 2
Neutropenia, TOTAL ([1]; related AE, N = 47): 43%
Pyrexia, Grade 3, patients ([1]; related AE, N = 47): 0
Pyrexia, Grade 4, patients ([1]; related AE, N = 47): 0
Pyrexia, TOTAL ([1]; related AE, N = 47): 13%
Vomiting, Grade 3, % ([1]; related AE, N = 47): (2%)
Vomiting, Grade 3, patients ([1]; related AE, N = 47): 1
Vomiting, Grade 4, patients ([1]; related AE, N = 47): 0
Vomiting, TOTAL ([1]; related AE, N = 47): 32%
WBC Decrease, Grade 3, % ([1]; related AE, N = 47): (2%)
WBC Decrease, Grade 3, patients ([1]; related AE, N = 47): 1
WBC Decrease, Grade 4, patients ([1]; related AE, N = 47): 0
WBC Decrease, TOTAL ([1]; related AE, N = 47): 6%
Median progression-free survival (PFS) [2]: 5.5 months
Overall survival (OS) [2]: 13.0 months
Response rate [2]: 33.3%
Treatment-related deaths (patients with mSCLC): No treatment-related deaths were observed
SN-38 released from the conjugate daily [3]: 50%
ORR ([4]; 47 response assessable patients, median of three prior therapies): 19%
Clinical benefit rate ([4]; 47 response assessable patients): 43%
Median OS [4]: 9.5 months
Median PFS [4]: 5.2 months
Partial response (PR), % of patients [5, 8]: 15%
Stable disease (SD), % of patients [5, 8]: 56%
Stable disease (SD), number of patients [5, 8]: 27
Total response [PR+SD], % of patients [5, 8]: 79%
Total response [PR+SD], number of patients [5, 8]: 38
Total response [PR+SD], % of patients [5, 9]: 71%
Total response [PR+SD], number of patients [5, 9]: 34/48
Total response [PR+SD] ([5]; CRC, 12/18): 67%
PD, number of patients ([5]; CRC, 18 assessable patients): 6
PR, number of patients ([5]; CRC, 18 assessable patients): 1
CEA after treatment (decrease from 781), single patient [5, 10]: 26.5 ng/mF
Maximum reduction in target lesions, single patient [5, 10]: 65%
Reduction in target lesions on first CT assessment (PR), single patient ([5]; CRC, person, starting dose 8 mg/kg): 37%
Total response [PR+SD] ([5]; NSCLC, 4/5): 80%
PD, number of patients ([5]; NSCLC, 5 assessable patients): 1
PR, number of patients ([5]; NSCLC, 5 assessable patients): 1
Primary target lesion size at first CT (from 5.6 cm), single patient ([5]; NSCLC, person, after 6th dose): 3.2 cm
Total response [PR+SD] ([5]; SCLC, 2/4): 50%
PD, number of patients ([5]; SCLC, 4 assessable patients): 2
PR, number of patients ([5]; SCLC, 4 assessable patients): 2
Reduction in target lesions, single patient ([5]; SCLC, person, 12 mg/kg reduced to 6.8 mg/kg, after two months): 38%
Total response [PR+SD] ([5]; TNBC, 6/8): 75%
PD, number of patients ([5]; TNBC, 8 assessable patients): 2
PR, number of patients ([5]; TNBC, 8 assessable patients): 2
PD, number of patients ([5]; all, 48 assessable patients): 14
PR, number of patients ([5]; all, 48 assessable patients): 7
Total response [PR+SD] ([5]; esophageal cancer, 3/4): 75%
PD, number of patients [5, 11]: 1
PR, number of patients [5, 11]: 1
Clearance of intact conjugate compared with the IgG ([6]; ELISA): cleared more quickly than the IgG
Time for the conjugate to clear from the serum ([6]; serum): ≤ 3 days
SN-38 in the serum bound to the IgG (non-glucuronidated form) ([6]; serum, HPLC (Unbound and TOTAL)): > 95%
Complete responses (CR), number ([7]; 35 mUC patients): 2
Confirmed partial responses (PR), number ([7]; 35 mUC patients): 6
Objective response rate (ORR) ([7]; 35 mUC patients): 29%
PR pending confirmation, number ([7]; 35 mUC patients): 2
Treated patients with a reduction in tumor size ([7]; 35 mUC patients): Seventy-four
ORR in patients with liver metastases ([7]; mUC): 25%
